Assay results published in article PMC8822709 (Journal of Biomedical Science, 2022).

Columns and labels:
[1] = target: T1, ENO1 (Alpha-enolase), endogenous in RD cells (Homo sapiens (RD cells), UniProt P06733); test: affinity purification with mass spectrometry; details: one partner purified
T1 construct: also called α-enolase

[2] = target: T2, ENO1 recombinant protein (α-enolase) (Homo sapiens, UniProt P06733); test: ELISA; indirect ELISA; recombinant protein (5 μg/mL) coated in carbonate-bicarbonate pH 9.6, 07-IgG1 diluted and added at 37 °C for 1 h, HRP goat anti-human IgG, OD 450 nm; details: both partners purified
T2 construct: also called hENO1; rhENO1; source: recombinant protein
T2 sequence (P06733 whole entry): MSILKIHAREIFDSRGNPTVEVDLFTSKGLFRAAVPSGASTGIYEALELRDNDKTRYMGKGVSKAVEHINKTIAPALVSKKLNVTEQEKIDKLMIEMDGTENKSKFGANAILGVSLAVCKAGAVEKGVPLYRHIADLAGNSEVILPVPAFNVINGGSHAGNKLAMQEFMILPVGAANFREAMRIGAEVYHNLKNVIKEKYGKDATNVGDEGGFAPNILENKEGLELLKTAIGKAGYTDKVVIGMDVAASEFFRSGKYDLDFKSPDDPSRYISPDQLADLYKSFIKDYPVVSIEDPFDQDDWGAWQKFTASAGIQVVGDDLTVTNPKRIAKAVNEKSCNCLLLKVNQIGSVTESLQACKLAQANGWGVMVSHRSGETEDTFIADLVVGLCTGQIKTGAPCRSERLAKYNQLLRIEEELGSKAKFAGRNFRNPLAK

PEG-precipitated EV-A71 = target: T3, PEG-precipitated EV-A71 (Enterovirus A71, stock strain …, UniProt Q9DY01); test: ELISA; details: both partners purified
T3 construct: also called EV-A71 protein; EV-A71 capsid proteins; source: PEG-precipitated EV-A71 (virus propagated in RD cells)

T1 sequence (P06733 whole entry): as above

B1: 07-human IgG1 antibody (antibody, V domains shown)
VH: EVQLLESGAVVKKPGESLKISCTGSGYVFRDYWVGWVRQMPGKGLEWLGMIYPDEFDIRYSPSFQGQVTISADKSIDTAYLQLSSLEASDTGIYYCARHGNTGCGGTMCYKSYLYYGMDVWGQGTTVTVS
VL: ELVLTQSPSVSVSPGQTASITCSGDKLGDKYACWYQQKPGQSPVLVIYQDNKRPSGIPERFSGSNSGNTATLTISGTRAMDEADYYCQAWDSSTCYVFGTGTKLTVL
notes: also called 07-IgG1; clone 07 recombinant antibody; source: ExpiCHO, co-transfected (pcDNA3.4 heavy and light chain), purified by protein A resin
binding result [1]: binds | binding result [2]: binds | binding result (PEG-precipitated EV-A71): no binding
